Residue numbers refer to the chain shown, from its start.
Tests used:
[1] = biological target: T1, cynomolgus monkey FcγRIIa1 extracellular domain, C-terminal His-tag (cynomolgus monkey); assay: SPR (Biacore), antibody captured, FcgR analyte, 25 C
T1 construct: also called cyno FcγRIIa1; cynoFcgRIIa1; not shown: His-tag added to C-terminus
T1 chain: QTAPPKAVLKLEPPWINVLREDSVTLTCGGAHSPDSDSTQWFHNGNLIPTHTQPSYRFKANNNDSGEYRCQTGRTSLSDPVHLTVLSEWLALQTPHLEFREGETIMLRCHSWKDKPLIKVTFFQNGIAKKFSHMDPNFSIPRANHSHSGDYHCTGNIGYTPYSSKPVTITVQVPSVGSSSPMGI
Procedure: (§1) The kinetic analysis of interactions between these antibodies and FcγR was carried out using BIACORE® T200 or BIACORE® 4000 (GE Healthcare). HBS-EP+ (GE Healthcare) was used as the running buffer, and the measurement temperature was set to 25° C. A chip produced by immobilizing Protein A. Protein A/G or mouse anti-human IgG kappa light chain (BD Biosciences) onto a Series S Sensor Chip CM4 or CM5 (GE Healthcare) by the amine-coupling method was used. […] After the measurement, the antibody captured on the chip was washed off by allowing reaction with 10 mM glycine-HCl, pH1.5 and 25 mM NaOH so that the chip was regenerated and used repeatedly. The sensorgrams obtained as measurement results were analyzed by the 1:1 Langmuir binding model using the BIACORE® Evaluation Software to calculate the binding rate constant ka (L/mol/s) and dissociation rate constant kd (l/s), and the dissociation constant KD (mol/L) was calculated from these values. […] Regarding such interactions, KD values were calculated using the following 1:1 binding model described in BIACORE® T100 Software Handbook BR1006-48 Edition AE.
(§2) The behavior of interacting molecules according to the 1:1 binding model on BIACORE® can be described by Equation 1: Req=C·R max/(KD+C)+RI, wherein, Req is a plot of steady-state binding levels to analyte concentration. C is concentration, RI is bulk refractive index contribution in the sample, and Rmax is analyte binding capacity of the surface. When this equation is rearranged, KD can be expressed as Equation 2: KD=C·Rmax/(Req−RI)−C. KD can be calculated by substituting the values of Rmax, RI, and C into Equation 1 or Equation 2. From the current measurement conditions, RI=0, C=2 μmol/L can be used.

[2] = biological target: T2, cynomolgus monkey FcγRIIa3 extracellular domain, C-terminal His-tag (cynomolgus monkey); assay: as above
T2 construct: also called cyno FcγRIIa3; cynoFcgRIIa3; not shown: His-tag added to C-terminus
T2 chain: T1 chain with P95T, T121A, A128S, H133P, D135N
Procedure: as §1, §2

[3] = biological target: T3, human FcγRIIb extracellular domain, C-terminal His-tag (human, UniProt P31994 43-217); assay: as above
T3 construct: also called FcgRIIb (human); not shown: His-tag added to C-terminus
T3 sequence: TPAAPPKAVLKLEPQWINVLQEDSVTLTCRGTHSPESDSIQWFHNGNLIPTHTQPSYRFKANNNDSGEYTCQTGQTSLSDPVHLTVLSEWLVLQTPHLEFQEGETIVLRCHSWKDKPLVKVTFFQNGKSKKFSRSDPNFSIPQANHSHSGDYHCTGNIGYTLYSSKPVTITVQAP
Procedure: as §1, §2

[4] = biological target: T4, cynomolgus monkey FcγRIIIaS extracellular domain, C-terminal His-tag (cynomolgus monkey, UniProt A3RFZ7 21-206 (rhesus entry)); assay: as above
T4 construct: also called cyno FcγRIIIaS; cynoFcγRIIIaS; not shown: His-tag added to C-terminus
Procedure: as §1, §2

[5] = biological target: T5, human FcγRIIaH extracellular domain, C-terminal His-tag (human, UniProt P12318 34-217); assay: as above
T5 construct: also called human FcγRIIa (type H); FcgRIIaH; not shown: His-tag added to C-terminus
T5 sequence: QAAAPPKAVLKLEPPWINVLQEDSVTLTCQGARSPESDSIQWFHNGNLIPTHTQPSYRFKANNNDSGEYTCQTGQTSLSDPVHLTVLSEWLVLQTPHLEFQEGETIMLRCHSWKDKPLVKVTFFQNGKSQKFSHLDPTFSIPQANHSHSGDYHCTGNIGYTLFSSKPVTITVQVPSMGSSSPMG
Procedure: as §1, §2

[6] = biological target: T6, human FcγRIIaR extracellular domain, C-terminal His-tag (human, UniProt P12318 34-217); assay: as above
T6 construct: also called human FcγRIIa (type R); FcgRIIaR; not shown: His-tag added to C-terminus
T6 chain: T5 sequence with H134R
Procedure: as §1, §2

[7] = biological target: T7, human FcγRIIIaV extracellular domain, C-terminal His-tag (human, UniProt P08637 17-208); assay: as above
T7 construct: also called FcgRIIIaV; not shown: His-tag added to C-terminus
Procedure: as §1, §2

[8] = biological target: T1, cynomolgus monkey FcγRIIa1 …; assay: SPR (Biacore), KD of SG1 / KD of variant;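 note: relative to parent M103205H795-SG1 carrying the SG1 human heavy chain constant region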
Procedure: as §1, §2

[9] = biological target: T2, cynomolgus monkey FcγRIIa3 …; assay: SPR (Biacore), KD of SG1 / KD of variant;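 note: relative to parent M103205H795-SG1 carrying the SG1 human heavy chain constant region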
Procedure: as §1, §2

[10] = biological target: T3, human FcγRIIb extracellular domain, …; assay: SPR (Biacore), KD of SG1 / KD of variant;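 note: relative to parent M103205H795-SG1 carrying the SG1 human heavy chain constant region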
Procedure: as §1, §2

[11] = biological target: T4, cynomolgus monkey FcγRIIIaS …; assay: SPR (Biacore), KD of SG1 / KD of variant;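 note: relative to parent M103205H795-SG1 carrying the SG1 human heavy chain constant region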
Procedure: as §1, §2

[12] = biological target: T5, human FcγRIIaH extracellular domain, …; assay: SPR (Biacore), KD of SG1 / KD of variant
Procedure: as §1, §2

[13] = biological target: T8, cynomolgus monkey FcγRIIa2 extracellular domain, C-terminal His-tag (cynomolgus monkey); assay: SPR (Biacore), KD of SG1 / KD of variant
T8 construct: also called cyno FcγRIIa2; cynoFcgRIIa2; not shown: His-tag added to C-terminus
T8 chain: T1 chain with P95T, T121A, I127K, A128S, K130N, D135N, R142Q
Procedure: as §1, §2

[14] = biological target: T6, human FcγRIIaR extracellular domain, …; assay: SPR (Biacore), KD of SG1 / KD of variant
Procedure: as §1, §2

[15] = biological target: T7, human FcγRIIIaV extracellular domain, …; assay: SPR (Biacore), KD of SG1 / KD of variant
Procedure: as §1, §2

T4 sequence (A3RFZ7 21-206): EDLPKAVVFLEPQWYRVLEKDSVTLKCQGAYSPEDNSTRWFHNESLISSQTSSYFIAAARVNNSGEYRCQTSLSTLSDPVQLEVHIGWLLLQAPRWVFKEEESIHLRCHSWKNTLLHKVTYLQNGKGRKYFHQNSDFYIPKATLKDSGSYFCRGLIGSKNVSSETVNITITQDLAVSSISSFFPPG
T7 sequence (P08637 17-208 F176V): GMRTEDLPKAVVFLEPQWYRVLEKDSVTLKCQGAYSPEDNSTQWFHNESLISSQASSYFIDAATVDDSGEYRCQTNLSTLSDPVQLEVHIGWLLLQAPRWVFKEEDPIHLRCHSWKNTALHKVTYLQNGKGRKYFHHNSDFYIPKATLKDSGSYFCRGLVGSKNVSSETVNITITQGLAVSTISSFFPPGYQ

Kd [1]: 5.1 µM
Kd [2]: 22 µM
Kd [3]: 4 µM
Kd [4]: 2.4 µM
Kd [5]: 0.44 µM
Kd [6]: 1.1 µM
Kd [7]: 17 µM
KD fold (SG1 = 1) [8]: 0.6 fold
KD fold (SG1 = 1) [9]: 0.6 fold
KD fold (SG1 = 1) [10]: 1.2 fold
KD fold (SG1 = 1) [11]: 0.15 fold
KD fold (SG1 = 1) [12]: 1.6 fold
KD fold (SG1 = 1) [13]: 0.6 fold
KD fold (SG1 = 1) [14]: 1.1 fold
KD fold (SG1 = 1) [15]: 0.05 fold
B1: M103205H795-MY316/M103202L889-SK1 (antibody, human IgG1, kappa)
heavy: QVTLKESGPVLVKPTETLTLTCTVSGIDLSHDDISWVRQAPGKGLEWVGIISYAGSTYYASWAKGRLTISKDTSKNQVVLTMTNMDPVDTATYYCARGVPAYSHGGDLWGQGTLVTVSSASTKGPSVFPLAPSSKSTSGGTAALGCLVKDYFPEPVTVSWNSGALTSGVHTFPAVLQSSGLYSLSSVVTVPSSSLGTQTYICNVNHKPSNTKVDKKVEPKSCDKTHTCPPCPAPELLLGPSVFLFPPKPKDTLMISRTPEVTCVVVDVSEEDPEVKFNWYVDGVEVHNAKTKPREELYNSTYRVVSVLTVLHQDWLNGKEYKCKVSNKALPKPIEKTISKAKGQPREPQVYTLPPSREEMTKNQVSLTCLVKGFYPSDIAVEWESNGQPENNYKTTPKVLDSDGSFFLYSKLTVDKSRWQQGNVFSCSVMHEALHNHYTQKSLSLSP
light: DIVMTQSPATLSLSPGERATLSCTSSQSVYHANWLSWFQQKPGQPPKLLIYWASTLAYGVPSRFSGSGSGTDFTLTISSLQPEDAATYYCAGGYGGGRYAFGQGTKVEIKRTVAAPSVFIFPPSDEQLKSGTASVVCLLNNFYPREAKVQWKVDNALQSGNSQESVTEQDSKDSTYSLSSTLTLSKADYEKHKVYACEVTHQGLSSPVTKSFNRGEC

Source: patent US20200317768A1 (published 2020)
